Measured values taken from article PMC4369733, “Design of a PDZbody, a bivalent binder of the E6 protein from human papillomavirus” (Scientific Reports, 2015).

T1: pseudo wild type SAP97 PDZ2 (residues 311-407; I342W, C378A) (human, UniProt Q12959 311-407, I342W | C378A)
T1 construct: SAP97 (also called human Dlg), second PDZ domain (PDZ2), residues 311-407; Residues of the thrombin site probably stay at the N-terminus after cleavage (surmised); also called pWT; source: E. coli BL21(DE3) pLysS, purified (nickel-Sepharose, thrombin digestion, nickel reload, Source 30Q); not shown: His tag, N-terminal, cleaved; lipoyl protein domain (Bacillus stearothermophilus), N-terminal, …
T1 sequence (looked up): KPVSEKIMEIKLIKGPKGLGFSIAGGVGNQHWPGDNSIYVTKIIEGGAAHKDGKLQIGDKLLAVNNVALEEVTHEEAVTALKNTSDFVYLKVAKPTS

B1: Lipo-E6_(18)-C: C-terminal domain of HPV18 E6 (residues 82-158) linked via the N-terminus to His-tagged lipoyl domain (domain or fragment)
chain: SDSVYGDTLEKLTNTGLYNLLIRCLRCQKPLNPAEKLRHLNEKRRFHNIAGHYRGQCHSCCNRARQERLQRRRETQV
notes: HPV18 E6 C-terminal domain, residues 82-158, UniProtKB P06463; A thrombin cleavage site (LVPRGS) stands between the lipoyl domain and the E6 domain and was not cut; also called HPV18 E6 C-terminal domain; source: E. coli BL21(DE3) pLysS, purified (nickel-Sepharose, Source 30Q; thrombin digestion omitted); not shown: His tag, N-terminal, kept; lipoyl protein domain (Bacillus stearothermophilus), …

What was measured:
[1] = target: Lipo-E6_(18)-C: C-terminal domain of HPV18 E6 (residues 82-158) linked via the N-terminus to His-tagged lipoyl domain (HPV18) (UniProt P06463); experiment: stopped-flow fluorescence kinetics; association: PDZ variant (6-20 µM) mixed with Lipo-E6_(18)-C (2 µM), Trp342 emission; 10°C, 50 mM potassium phosphate pH 7.5, 240 µM β-mercaptoethanol; kon from kobs versus PDZ concentration; Kd = koff/kon
[2] = target: Lipo-E6_(18)-C: C-terminal domain of HPV18 E6 (residues 82-158) linked via the N-terminus to His-tagged lipoyl domain (HPV18) (UniProt P06463); experiment: stopped-flow fluorescence kinetics; displacement: pre-formed complex of PDZ variant (0.75 µM) and Lipo-E6_(18)-C (0.75 µM) mixed with dansylated peptide (20, 150 and 300 µM); 10°C, 50 mM potassium phosphate pH 7.5, 240 µM β-mercaptoethanol; koff = kobs at high peptide
[3] = target: pseudo wild type SAP97 PDZ2 (residues 311-407; I342W, C378A) (human) (UniProt Q12959); experiment: ITC; full-length HPV16 E6 titrated into the PDZ variant or PDZbody; ITC200, 25°C, 20 mM sodium phosphate pH 6.8, 200 mM NaCl, 1 mM TCEP; single-site model
[4] = target: PDZϕ9 (SAP97 PDZ2 pseudo wild type with L391F, K392M) (human) (UniProt Q12959); experiment: as above
[5] = target: PDZbody15 (E6AP helix, Gly-Ser linker of 10 residues, PDZϕ9) (UniProt Q12959); experiment: as above
[6] = target: PDZbody20 (E6AP helix, Gly-Ser linker of 15 residues, PDZϕ9) (UniProt Q12959); experiment: as above
[7] = target: PDZbody25 (E6AP helix, Gly-Ser linker of 20 residues, PDZϕ9) (UniProt Q12959); experiment: as above
[8] = target: PDZbody8 (E6AP helix, Gly-Ser linker of 3 residues, PDZϕ9) (UniProt Q12959); experiment: as above
[9] = target: T1, pseudo wild type SAP97 PDZ2 (residues …); experiment: stopped-flow fluorescence kinetics; association: PDZ variant (6-20 µM) mixed with Lipo-E6_(18)-C (2 µM), Trp342 emission; 10°C, 50 mM potassium phosphate pH 7.5, 240 µM β-mercaptoethanol; kon from kobs versus PDZ concentration; Kd = koff/kon; details: both partners purified
[10] = target: T1, pseudo wild type SAP97 PDZ2 (residues …); experiment: stopped-flow fluorescence kinetics; displacement: pre-formed complex of PDZ variant (0.75 µM) and Lipo-E6_(18)-C (0.75 µM) mixed with dansylated peptide (20, 150 and 300 µM); 10°C, 50 mM potassium phosphate pH 7.5, 240 µM β-mercaptoethanol; koff = kobs at high peptide; details: both partners purified

| Molecule | Kd [1] [nM] | kon [1] [M⁻¹ s⁻¹] | koff [2] [s⁻¹] | also measured |
| --- | --- | --- | --- | --- |
| PDZϕ1 (SAP97 PDZ2 pseudo wild type with E385R) (from UniProt Q12959 311-407) (designed binder) | 920 | 8.2e+06 | 7.5 | – |
| PDZϕ2 (SAP97 PDZ2 pseudo wild type with E385H, L391F, K392Q) (from UniProt Q12959 311-407) (designed binder) | 260 | 5.9e+06 | 1.5 | – |
| PDZϕ3 (SAP97 PDZ2 pseudo wild type with L391F, K392A) (from UniProt Q12959 311-407) (designed binder) | 160 | 4.6e+06 | 0.75 | – |
| PDZϕ4 (SAP97 PDZ2 pseudo wild type with E385H, K392R) (from UniProt Q12959 311-407) (designed binder) | 600 | 8.5e+06 | 5.1 | – |
| PDZϕ5 (SAP97 PDZ2 pseudo wild type with E385H, K392T) (from UniProt Q12959 311-407) (designed binder) | 780 | 4.9e+06 | 3.8 | – |
| PDZϕ6 (SAP97 PDZ2 pseudo wild type with E385K, K392Q) (from UniProt Q12959 311-407) (designed binder) | 2500 | 4e+06 | 10.2 | – |
| PDZϕ7 (SAP97 PDZ2 pseudo wild type with E385K, K392R) (from UniProt Q12959 311-407) (designed binder) | 610 | 8.9e+06 | 5.5 | – |
| PDZϕ8 (SAP97 PDZ2 pseudo wild type with E385T) (from UniProt Q12959 311-407) (designed binder) | 660 | 5.8e+06 | 3.8 | – |
| PDZϕ9 (SAP97 PDZ2 pseudo wild type with L391F, K392M) (from UniProt Q12959 311-407) (designed binder) | 93 | 5.9e+06 | 0.55 | – |
| full-length HPV16 E6 (from UniProt P03126 1-158) (natural protein) | – | – | – | Kd [3]: 6300 nM; dH [3]: -4.6 kcal/mol; stoichiometry N [3]: 0.75; Kd [4]: 910 nM; dH [4]: -9.9 kcal/mol; stoichiometry N [4]: 0.75; Kd [5]: 160 nM; dH [5]: -16.5 kcal/mol; stoichiometry N [5]: 0.93; Kd [6]: 65 nM; dH [6]: -17 kcal/mol; stoichiometry N [6]: 0.94; Kd [7]: 79 nM; dH [7]: -19.8 kcal/mol; stoichiometry N [7]: 0.92; Kd [8]: 200 nM; dH [8]: -19.1 kcal/mol; stoichiometry N [8]: 0.76 |
| B1 | – | – | – | Kd [9]: 540 nM; kon [9]: 6.2e+06 M⁻¹ s⁻¹; koff [10]: 3.3 s⁻¹ |
